Measured values published in the supplement of paper PMC12338614.
± gives the uncertainty stated by the source.

B1: library; numbered along this chain (parent)
chain: MEVVDPQQLGMFTEGELMSVGMDTFIHRIDSTEVIYQPRRKRAKLIGKYLMGDLLGEGSYGKVKEVLDSETLCRRAVKILKKKKLRRIPNGEANVKKEIQLLRRLRHKNVIQLVDVLYNEEKQKMYMVMEYCVCGMQEMLDSVPEKRFPVCQAHGYFCQLIDGLEYLHSQGIVHKDIKPGNLLLTTGGTLKISDLGVAEALHPFAADDTCRTSQGSPAFQPPEIANGLDTFSGFKVDIWSAGVTLYNITTGLYPFEGDNIYKLFENIGKGSYAIPGDCGPPLSDLLKGMLEYEPAKRFSIRQIRQHSWFRKKHPPAEAPVPIPPSPDTKDRWRSMTVVPYLEDLHGADEDEDLFDIEDDIIYTQDFTVPGQVPEEEASHNGQRRGLPKAVCMNGTEAAQLSTKSRAEGRAPNPARKACSASSKIRRLSACKQQ

Variants of: B1
Assay: STK11 functional score (HeLa growth suppression), rescaled enrichment; synonymous median = 1, nonsense median = 0 (normalised score)
Conditions: with HeLa; variant type: missense
In short: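 Codon-randomised (POPCode) libraries of codon-optimised STK11 were integrated by Bxb1 at an AAVS1 landing pad in HeLa, in three regions each transfected three times. Integrants (BFP-negative, mCherry-positive) were FACS-sorted 4–5 days after electroporation and grown about two weeks; tiled gDNA amplicons were sequenced on NextSeq (~2 million reads per tile). The functional score is the wild-type-corrected post/pre-selection log ratio, rescaled to synonymous and nonsense medians, merged over codons and replicate transfections, with bootstrapped error.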

Row | Variant | STK11 functional score
1 | V20C | 0.242 ± 0.13
2 | E120H | 1.66 ± 0.17
3 | G215N | 1.43 ± 0.19
4 | R104F | 1.19 ± 0.3
5 | R333K | 1.61 ± 0.39
6 | V4W | 1.22 ± 0.089
7 | L263Q | 0.281 ± 0.62
8 | L17S | 1.35 ± 0.55
9 | P6G | 0.386 ± 0.15
10 | I46G | 0.857 ± 0.11
11 | P387I | 1.54 ± 0.17
12 | S419G | 1.58 ± 0.034
13 | S401A | 1.54 ± 0.33
14 | D352K | 1.55 ± 0.13
15 | K403I | 1.04 ± 0.46
16 | K388H | 1.12 ± 0.26
17 | Q364M | 0.768 ± 0.13
18 | A153W | -0.261 ± 0.095
19 | L285T | -0.111 ± 0.11
20 | P275S | 0.957 ± 0.27
21 | G394M | 1.62 ± 0.15
22 | D327H | 1.21 ± 0.56
23 | P222N | 1.61 ± 0.13
24 | M289Q | 0.0869 ± 0.082

Row | Variant | STK11 functional score
25 | A417L | 1.51 ± 0.15
26 | V77Q | 0.597 ± 0.56
27 | E291K | 1.28 ± 0.62
28 | K329F | 1.18 ± 0.49
29 | E223G | 0.169 ± 0.077
30 | E407D | 1.56 ± 0.25
31 | S422E | 1.49 ± 0.17
32 | T395Y | 1.47 ± 0.23
33 | I35G | 1.25 ± 0.57
34 | T212C | 1.32 ± 0.41
35 | C418A | 1.62 ± 0.12
36 | K262Y | 1.29 ± 0.3
37 | L45D | 1.34 ± 0.11
38 | A93G | 0.685 ± 0.085
39 | K178F | 0.35 ± 0.048
40 | Q214G | 1.57 ± 0.22
41 | R86P | 1.3 ± 0.17
42 | A420L | 1.61 ± 0.16
43 | T367R | 1.32 ± 0.27
44 | G215L | 1.04 ± 0.15
45 | E14Q | 1.35 ± 0.3
46 | T13A | 1.5 ± 0.23
47 | I360R | 0.694 ± 0.27
48 | Q382H | 1.15 ± 0.35

Row | Variant | STK11 functional score
49 | L160H | 0.212 ± 0.28
50 | E120W | 0.626 ± 0.087
51 | K108F | 1.04 ± 0.3
52 | V133H | 1.47 ± 0.49
53 | I300C | 0.803 ± 0.36
54 | D348Y | 0.868 ± 0.53
55 | T13S | 0.282 ± 0.092
56 | P411V | 1.62 ± 0.12
57 | Y60V | 0.694 ± 0.2
58 | P326E | 1.57 ± 0.26
59 | P203S | 1.68 ± 0.46
60 | K62N | 1.6 ± 0.6
61 | H202A | 1.17 ± 0.49
62 | E376M | 0.943 ± 0.45
63 | Y126R | 0.256 ± 0.18
64 | Y49F | 1.12 ± 0.3
65 | V337W | 0.54 ± 0.15
66 | M136N | -0.15 ± 0.087
67 | K44W | 1.3 ± 0.074
68 | A377I | 1.55 ± 0.2
69 | G251R | 0.411 ± 0.19
70 | S142L | 1.16 ± 0.2
71 | G276W | 1.36 ± 0.15
72 | H107Y | 0.262 ± 0.079

Row | Variant | STK11 functional score
73 | S69A | 1.14 ± 0.16
74 | K122P | 1.68 ± 0.28
75 | G91S | 0.833 ± 0.096
76 | T24L | 1.18 ± 0.13
77 | A198T | 1.23 ± 0.13
78 | T328W | 1.59 ± 0.26
79 | G385H | 1.56 ± 0.25
80 | S271V | 0.986 ± 0.14
81 | G187S | 1.67 ± 0.44
82 | E98A | 0.326 ± 0.083
83 | K96L | 0.614 ± 0.26
84 | T249R | 1.28 ± 0.31
85 | P319L | 1.3 ± 0.17
86 | D68Y | -0.0799 ± 0.081
87 | D359V | 1.05 ± 0.17
88 | A205C | 1.25 ± 0.39
89 | R405V | 1.62 ± 0.28
90 | L190S | 0.0644 ± 0.18
91 | P254Y | 0.0833 ± 0.12
92 | P275G | 1.14 ± 0.41
93 | M18W | 0.78 ± 0.076
94 | P179G | 0.216 ± 0.078
95 | H306A | 1.38 ± 0.39
96 | Q170K | 0.664 ± 0.14

Row | Variant | STK11 functional score
97 | S169I | 0.231 ± 0.09
98 | P315Q | 1.34 ± 0.075
99 | M127R | 0.302 ± 0.094
100 | P294V | 1.36 ± 0.4
101 | Q302C | 1 ± 0.73
102 | K146L | 1.13 ± 0.13
103 | H345W | 1.56 ± 0.11
104 | P324C | 1.33 ± 0.41
105 | E145H | 1.31 ± 0.2
106 | G135V | 1.29 ± 0.3
107 | Q137H | 0.922 ± 0.5
108 | H202S | 1.17 ± 0.25
109 | Y292W | 0.686 ± 0.12
110 | L164G | -0.142 ± 0.098
111 | Y166F | 1.05 ± 0.27
112 | P373S | 1.44 ± 0.32
113 | V128H | 0.71 ± 0.17
114 | V128P | -0.00512 ± 0.14
115 | L183T | 1.1 ± 0.28
116 | Q123K | 0.3 ± 0.27
117 | D358W | 1.46 ± 0.16
118 | T209N | 1.51 ± 0.17
119 | N109L | 0.662 ± 0.11
120 | K64S | 1.53 ± 0.19

Row | Variant | STK11 functional score
121 | F354W | 0.138 ± 0.13
122 | G215V | 0.788 ± 0.16
123 | F234E | 1.59 ± 0.46
124 | I35M | 0.908 ± 0.52
125 | Y362V | 1.32 ± 0.36
126 | E14W | 0.426 ± 0.6
127 | F309I | 1.38 ± 0.25
128 | E351R | 1.26 ± 0.16
129 | G135E | 1.45 ± 0.13
130 | D208Q | 1.58 ± 0.3
131 | A410S | 1.4 ± 0.26
132 | K388T | 1.42 ± 0.34
133 | N94D | 1.31 ± 0.14
134 | I79V | 0.313 ± 0.085
135 | T32R | 1.36 ± 0.36
136 | P144K | 1.63 ± 0.2
137 | L290V | 0.625 ± 0.089
138 | M129L | 0.635 ± 0.09
139 | P275V | 0.683 ± 0.34
140 | H306W | -0.368 ± 0.084
141 | K287A | 0.932 ± 0.14
142 | L140P | -0.0157 ± 0.083
143 | E65V | 0.734 ± 0.15
144 | L286V | 1.14 ± 0.18

Row | Variant | STK11 functional score
145 | I35D | 1.67 ± 0.17
146 | A420R | 1.51 ± 0.28
147 | K311P | 1.07 ± 0.4
148 | R74C | 1.11 ± 0.25
149 | T363H | 1.17 ± 0.46
150 | E57K | 1.12 ± 0.74
151 | D30S | 1.7 ± 0.19
152 | R415L | 1.61 ± 0.12
153 | H174Y | 1.11 ± 0.27
154 | Q371A | 1.6 ± 0.27
155 | P179S | 0.562 ± 0.19
156 | T185N | 0.509 ± 0.18
157 | K78H | -0.114 ± 0.081
158 | I274D | 0.889 ± 0.3
159 | L54D | 1.14 ± 0.35
160 | L353F | 1.27 ± 0.6
161 | T71L | 0.974 ± 0.12
162 | A76G | 1.09 ± 0.1
163 | S59W | 0.719 ± 0.1
164 | R409C | 1.28 ± 0.46
165 | Q123H | 1.11 ± 0.38
166 | R103E | 1.68 ± 0.18
167 | G15Y | 1.58 ± 0.29
